From IntAct's records for PubMed 25350732

B1: Probable peptidoglycan glycosyltransferase FtsW (Caulobacter crescentus), B8H092 (parent)
chain: MASNATHAFARTDRTALGLWWWTTDRWLLGATALLVTLGMLLSFASSPAAAQRIGIDDQFHFALRMCFFATASSVLMLITSMLSPRDIRRAAFFIYLGAIAVMIALPFIGHNAKGATRWLQFAGFTLQPSEFMKPALIVLVSWMFAEGQKGEGVPGVSIAFLLYFIAVALLLIQPDVGQTVLITIAFGAAFWMAGVPISWIMGLGGVALAGLGSTYFLFDHVHARVQKFLSPDQADTHQITRAAEAIRAGGLFGRGPGEGVMKRHVPDLHTDFIYSVAAEEYGLIFSWSLIGLFAFVVVRGLYKAMKLNDPFEQVAAAGLFVLVGQQALINIAVNLNMIPTKGMTLPFISYGGSSMLAMGLTLGMALALLRKRPGAYGASGEFGFGRADA
partner: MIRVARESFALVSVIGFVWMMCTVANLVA

Variants of: B1
Conditions: with sida_cauvn sidA

Variant	effect of a mutation on the interaction
A31K	disrupting interaction strength
